The substances below were run against human IRAK1 fused to the N-terminal Nanoluc fragment N67 (human) (UniProt P51617) (assay: split reporter (BiFC, NanoBiT)).
“CHIKV capsid protein fused to the C-terminal Nanoluc fragment C67 (from UniProt Q8JUX5) (natural protein)” showed a fold Nanoluc activity over control reactions of over 10 fold.
For “RRV capsid protein fused to the C-terminal Nanoluc fragment C67 (natural protein)”, the fold Nanoluc activity over control reactions was over 10 fold.
In the case of “SINV capsid protein fused to the C-terminal Nanoluc fragment C67 (from UniProt P03316) (natural protein)”, the fold Nanoluc activity over control reactions is reported as 12 fold.
